Assay results from the supplement of paper PMC9112550, “Optimization of the antimicrobial peptide Bac7 by deep mutational scanning” (BMC Biology, 2022).

These sequences were tested on Escherichia coli TOP10 (assay: shrunken log2 fold change of peptide-encoding DNA abundance (4.5 h post-induction vs induction); higher = less antimicrobial activity (less host growth inhibition)). Conditions: time post-induction: 4.5 h; library: site-saturation at positions 5, 18, 19, 20.
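Also: peptides expressed intracellularly from a pBAD plasmid library in pooled LB shake-flask culture, induced with 0.3% L-arabinose, DNA abundance read by NGS, three biological replicates, DESeq2 with apeglm shrinkage.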

Sequence | shrunken log2 fold change
RRIRARPPRLPRPRPRPYDEPRP | -0.0107
RRIRKRPPRLPRPRPRPTRNPRP | 0.547
RRIRMRPPRLPRPRPRPEFQPRP | 0.372
RRIRVRPPRLPRPRPRPFNSPRP | -0.00973
RRIRSRPPRLPRPRPRPNGLPRP | -0.0247
RRIRTRPPRLPRPRPRPLREPRP | 0.318
RRIRTRPPRLPRPRPRPTWDPRP | 0.478
RRIRIRPPRLPRPRPRPQTCPRP | -0.141
RRIRNRPPRLPRPRPRPWKRPRP | -0.0326
RRIRYRPPRLPRPRPRPSWHPRP | -1.12
RRIRIRPPRLPRPRPRPTPNPRP | -0.0265
RRIRGRPPRLPRPRPRPPDHPRP | 0.982
RRIRFRPPRLPRPRPRPSMRPRP | 0.377
RRIRQRPPRLPRPRPRPEITPRP | 0.0276
RRIRLRPPRLPRPRPRPCFHPRP | -0.49
RRIRHRPPRLPRPRPRPCRDPRP | 0.0154
RRIRMRPPRLPRPRPRPWWTPRP | 0.0804
RRIRQRPPRLPRPRPRPSEWPRP | -0.0519
RRIRKRPPRLPRPRPRPGDWPRP | 0.485
RRIRERPPRLPRPRPRPYHGPRP | -0.47
RRIRRRPPRLPRPRPRPVVTPRP | 0.911
RRIRQRPPRLPRPRPRPKQYPRP | -0.359
RRIRTRPPRLPRPRPRPNLQPRP | -0.0672
RRIRTRPPRLPRPRPRPAMPPRP | 0.131
RRIRHRPPRLPRPRPRPGDAPRP | 0.0297

Sequence | shrunken log2 fold change
RRIRGRPPRLPRPRPRPTPWPRP | 0.848
RRIRSRPPRLPRPRPRPSSPPRP | -0.561
RRIRWRPPRLPRPRPRPMTTPRP | 0.1
RRIRDRPPRLPRPRPRPHRHPRP | -0.00955
RRIRQRPPRLPRPRPRPCMFPRP | -0.214
RRIRRRPPRLPRPRPRPFEAPRP | 1.04
RRIRTRPPRLPRPRPRPRREPRP | 0.351
RRIRIRPPRLPRPRPRPRYQPRP | 0.00748
RRIRCRPPRLPRPRPRPCWRPRP | 0.252
RRIRPRPPRLPRPRPRPLTYPRP | -0.0089
RRIRLRPPRLPRPRPRPSGRPRP | 0.448
RRIRFRPPRLPRPRPRPYDYPRP | -0.107
RRIRKRPPRLPRPRPRPPVDPRP | 0.0616
RRIRRRPPRLPRPRPRPFAVPRP | 0.0874
RRIRSRPPRLPRPRPRPLRHPRP | 0.375
RRIRRRPPRLPRPRPRPAFIPRP | 0.115
RRIRRRPPRLPRPRPRPTTCPRP | 0.379
RRIRDRPPRLPRPRPRPIGPPRP | 0.0272
RRIRDRPPRLPRPRPRPEQLPRP | 0.104
RRIRIRPPRLPRPRPRPPVNPRP | -0.456
RRIRVRPPRLPRPRPRPLGKPRP | 0.0149
RRIRFRPPRLPRPRPRPLKGPRP | -0.128
RRIRARPPRLPRPRPRPDVWPRP | 0.342
RRIRVRPPRLPRPRPRPQQNPRP | -0.112
RRIRIRPPRLPRPRPRPIMSPRP | 0.0262

Sequence | shrunken log2 fold change
RRIRQRPPRLPRPRPRPTRPPRP | 1.05
RRIRNRPPRLPRPRPRPSTEPRP | 0.118
RRIRARPPRLPRPRPRPMWVPRP | -0.0205
RRIRIRPPRLPRPRPRPEELPRP | -0.0241
RRIRWRPPRLPRPRPRPNVKPRP | -0.278
RRIRYRPPRLPRPRPRPTAFPRP | 0.0438
RRIRIRPPRLPRPRPRPDSCPRP | -0.972
RRIRYRPPRLPRPRPRPVDIPRP | -0.00973
RRIRWRPPRLPRPRPRPLNQPRP | -0.0739
RRIRYRPPRLPRPRPRPPEKPRP | 0.274
RRIRPRPPRLPRPRPRPNPPPRP | 0.188
RRIRQRPPRLPRPRPRPRTNPRP | 0.158
RRIRKRPPRLPRPRPRPNWKPRP | 0.363
RRIRVRPPRLPRPRPRPQCSPRP | -0.18
RRIRMRPPRLPRPRPRPMQTPRP | -0.00202
RRIRVRPPRLPRPRPRPDVHPRP | -0.159
RRIRWRPPRLPRPRPRPCNMPRP | -0.179
RRIRCRPPRLPRPRPRPMGCPRP | -0.0697
RRIRWRPPRLPRPRPRPWGNPRP | 0.149
RRIRSRPPRLPRPRPRPNMAPRP | -0.0738
RRIRGRPPRLPRPRPRPNVNPRP | 0.371
RRIRQRPPRLPRPRPRPNFTPRP | -0.186
RRIRVRPPRLPRPRPRPSATPRP | 0.43
RRIRIRPPRLPRPRPRPFRFPRP | -0.392
RRIRSRPPRLPRPRPRPENKPRP | -0.125

Sequence | shrunken log2 fold change
RRIRCRPPRLPRPRPRPCLVPRP | -0.463
RRIRFRPPRLPRPRPRPLITPRP | -0.503
RRIRTRPPRLPRPRPRPGNYPRP | 0.0108
RRIRNRPPRLPRPRPRPTLVPRP | -0.0435
RRIRNRPPRLPRPRPRPWWVPRP | -0.226
RRIRCRPPRLPRPRPRPWQIPRP | -0.153
RRIRERPPRLPRPRPRPDFGPRP | -0.0271
RRIRARPPRLPRPRPRPWMVPRP | 0.0197
RRIRYRPPRLPRPRPRPAAEPRP | 0.22
RRIRIRPPRLPRPRPRPICVPRP | -0.181
RRIRQRPPRLPRPRPRPNYYPRP | -0.611
RRIRLRPPRLPRPRPRPIQDPRP | -0.105
RRIRFRPPRLPRPRPRPQNDPRP | -0.296
RRIRNRPPRLPRPRPRPANHPRP | -0.208
RRIRSRPPRLPRPRPRPSDIPRP | -0.516
RRIRFRPPRLPRPRPRPKVMPRP | -0.178
RRIRNRPPRLPRPRPRPADAPRP | 0.261
RRIRDRPPRLPRPRPRPFMEPRP | -0.148
RRIRKRPPRLPRPRPRPEEEPRP | 0.0391
RRIRPRPPRLPRPRPRPQMDPRP | -0.395
RRIRDRPPRLPRPRPRPETKPRP | 0.0655
RRIRKRPPRLPRPRPRPMKSPRP | 0.37
RRIRARPPRLPRPRPRPHVPPRP | -0.242
RRIRYRPPRLPRPRPRPINYPRP | -1.12
RRIRRRPPRLPRPRPRPDLKPRP | 0.162

Sequence | shrunken log2 fold change
RRIRFRPPRLPRPRPRPHKFPRP | -0.5
RRIRPRPPRLPRPRPRPITGPRP | -0.189
RRIRMRPPRLPRPRPRPLEHPRP | 0.0245
RRIRNRPPRLPRPRPRPVSSPRP | -0.00623
RRIRKRPPRLPRPRPRPKKWPRP | 0.406
RRIRGRPPRLPRPRPRPCSCPRP | 0.105
RRIRGRPPRLPRPRPRPYNDPRP | -0.155
RRIRKRPPRLPRPRPRPHWAPRP | 0.118
RRIRSRPPRLPRPRPRPDTPPRP | -0.0107
RRIRERPPRLPRPRPRPVLWPRP | 0.153
RRIRMRPPRLPRPRPRPVTEPRP | -0.0547
RRIRVRPPRLPRPRPRPPWWPRP | 0.665
RRIRMRPPRLPRPRPRPCQHPRP | -0.188
RRIRNRPPRLPRPRPRPVACPRP | -0.0504
RRIRVRPPRLPRPRPRPVKIPRP | -0.29
RRIRQRPPRLPRPRPRPMFTPRP | -0.31
RRIRGRPPRLPRPRPRPFPDPRP | 0.0778
RRIRNRPPRLPRPRPRPYDCPRP | -0.109
RRIRERPPRLPRPRPRPYQVPRP | -0.109
RRIRTRPPRLPRPRPRPKCHPRP | -0.0989
RRIRGRPPRLPRPRPRPRPTPRP | 0.906
RRIRCRPPRLPRPRPRPKNEPRP | -0.1
RRIRMRPPRLPRPRPRPHHLPRP | 0.0151
RRIRQRPPRLPRPRPRPHMHPRP | -0.39
RRIRARPPRLPRPRPRPKASPRP | 0.256
